Laboratory results: paper PMC5036782 (Biophysics, 2011)

Experiments:
Test in all cases: NMR titration; 1H-13C HSQC of selectively [13C]-methyl-Met labelled CaM or variant, Ca2+-bound form compared with the complex with skMLCKp; 20 mM phosphate, 100 mM KCl, 10 mM CaCl2, pH 7.0, 25°C, about 0.6 mM protein, 800 MHz
Settings in all cases: both partners purified
[1] = biological target: intact chicken calmodulin (CCM0) (chicken, UniProt P62149 1-149)
[2] = biological target: CCMΔ4, chicken calmodulin lacking the last four residues (M145 to K148) (chicken, UniProt P62149 1-145)
[3] = biological target: CCMΔ5, chicken calmodulin lacking the last five residues (M144 to K148) (chicken, UniProt P62149 1-144)

binding result [1]: binds
binding result [2]: binds
binding result [3]: binds
Binder: KRRWKKNFIAVSAANRFKKISSSGAL
